Measured values from patent US20160324751A1, “METHOD OF PREPARING RECOMBINANT HUMAN TYROSINASE” (Conopco, Inc., d/b/a UNILEVER, priority 2012, published 2016).

What was measured:
[1] = target: T1, human tyrosinase prepared using truncated gene (TMRL) (Homo sapiens, UniProt P14679); test: In vitro tyrosine to melanin assay; type: biochemical; details: TMRL (60 μg) + 50 mM Arbutin
T1 construct: The truncated version is defined as a gene whose corresponding protein extends from the N-terminus to the amino acid 472 or lower; made in house; host or cells: HIGHFIVE (BTI-TN-5B1-4) insect cells, baculovirus (PFASTBAC)
T1 sequence (P14679 19-472 limits assumed): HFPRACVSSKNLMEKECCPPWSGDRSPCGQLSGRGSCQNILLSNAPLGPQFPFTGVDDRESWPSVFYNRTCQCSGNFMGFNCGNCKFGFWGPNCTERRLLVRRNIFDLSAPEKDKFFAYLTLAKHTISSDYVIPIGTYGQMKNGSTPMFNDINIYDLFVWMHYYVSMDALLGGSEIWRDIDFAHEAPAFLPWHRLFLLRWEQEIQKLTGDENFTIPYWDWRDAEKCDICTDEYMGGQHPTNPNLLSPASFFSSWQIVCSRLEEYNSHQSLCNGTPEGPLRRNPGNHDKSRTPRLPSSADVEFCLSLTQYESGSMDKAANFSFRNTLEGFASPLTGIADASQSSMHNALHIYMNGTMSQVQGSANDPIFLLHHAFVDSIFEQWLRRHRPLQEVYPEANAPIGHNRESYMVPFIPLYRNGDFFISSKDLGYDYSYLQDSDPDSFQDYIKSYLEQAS
From the text: At the completion of the reaction, samples were photographed and data analyzed further in the same manner described under the DOPA+MBTH section.

[2] = system: human tyrosinase; test: DOPA (2 mM) oxidation assay in absence of MBTH, OD450 nm; type: biochemical; details: 15 μg protein equivalent, OD450 nm after 90 min converted into ratio
Protocol: DOPA oxidation activity was examined by a slightly modified version of the procedure earlier reported by Harris & Winder [Eur. J. Biochem. (1991) 198: 317-326], excluding Perchloric acid and Dimethylformamide but capturing a picture on reaction progress. Separately, in vitro melanin formation assay was carried out for 7 hrs. at 37° C., using a substrate mix (of 0.5 mM L-Tyrosine+15 μM L-DOPA) in 50 mM phosphate buffer (pH 6.8) and using indicated amounts of protein. This assay covers both tyrosine hydroxylation and DOPA oxidation activities together in the same run. Human melanocytic lysate served as the reference positive control and absence of any protein served as the no enzyme negative control (uncatalyzed background reaction) for these reactions. Assay volumes of 0.1 ml were adequate, indicating scalability for enhanced high throughput screening purposes.
When the activity of 15 μg protein equivalent recombinant human tyrosinase samples were tested in DOPA (2 mM) assay (in absence of MBTH), OD450 nm values reached after 90 min. (indication of extent of oxidation) were converted into a ratio form and are tabulated below: […]

[3] = system: insect cells expressing FL rHuTyrase; test: Visual examination of cell pellet prior to cell lysis; type: cell-based; details: prior to cell lysis by sonication; control uninfected cells pale
From the text: FIG. 2: Visual examination (prior to cell lysis by sonication) of the samples of cell pellet obtained in the case of insect cells expressing Full (FL) rHuTyrase (Example 1) as compared to the control uninfected cells (Example A).

[4] = system: human tyrosinase; test: DOPA+MBTH solution phase tyrosinase enzymatic assay; type: biochemical; details: gray scale intensity difference to Example D, relative to HML (Example B); 0 = transparent, close to 1 = activity comparable to HML
Protocol: Standard western blot procedure was used to examine the extent of tyrosinase protein expression as well as determine optimal time point to harvest the cells. For scale up work, it was decided to use the insect cell line known as BTI-TN-5B1-4, sold under the tradename HIGHFIVE™ further. 100 ml scale growth of “infected” HIGHFIVE™ cells were carried out and both the spent media as well as the cell pellets were collected. The latter was lyzed by regular sonication method and the activity of the tyrosinase enzyme in various samples were tested using the typical DOPA oxidation and DOPA+MBTH coupling assays.
DOPA oxidation activity was examined by a slightly modified version of the procedure earlier reported by Harris & Winder [Eur. J. Biochem. (1991) 198: 317-326], excluding Perchloric acid and Dimethylformamide but capturing a picture on reaction progress. […]
Example E: Growth media supernatant in which above cells were grown Reaction samples were photographed and converted into gray scale intensity (GSI) by computer software digitization. Numerical differences (di) were calculated between GSI of any sample and that of reference control background sample (Example D). dmax was the maximal difference, that between HML (positive reference control, Example B) and the reference control background sample (Example D).

OC[C@H]1O[C@@H](Oc2ccc(O)cc2)[C@H](O)[C@@H](O)[C@@H]1O [Arbutin]
Scale ratio di/dmax (tyrosinase activity of TMRL with inhibitor) [1]: 0.00

B1: Example G: Commercially sourced E. coli (bacteria) expressed recombinant human tyrosinase (protein, UniProt P14679 19-529, looked up)
Tyrosinase: HFPRACVSSKNLMEKECCPPWSGDRSPCGQLSGRGSCQNILLSNAPLGPQFPFTGVDDRESWPSVFYNRTCQCSGNFMGFNCGNCKFGFWGPNCTERRLLVRRNIFDLSAPEKDKFFAYLTLAKHTISSDYVIPIGTYGQMKNGSTPMFNDINIYDLFVWMHYYVSMDALLGGSEIWRDIDFAHEAPAFLPWHRLFLLRWEQEIQKLTGDENFTIPYWDWRDAEKCDICTDEYMGGQHPTNPNLLSPASFFSSWQIVCSRLEEYNSHQSLCNGTPEGPLRRNPGNHDKSRTPRLPSSADVEFCLSLTQYESGSMDKAANFSFRNTLEGFASPLTGIADASQSSMHNALHIYMNGTMSQVQGSANDPIFLLHHAFVDSIFEQWLRRHRPLQEVYPEANAPIGHNRESYMVPFIPLYRNGDFFISSKDLGYDYSYLQDSDPDSFQDYIKSYLEQASRIWSWLLGAAMVGAVLTALLAGLVSLLCRHKRKQLPEEKQPLLMEKEDYHSLYQSHL
modifications: E. coli expressed
notes: Commercially sourced E. coli (bacteria) expressed recombinant human tyrosinase
Scale ratio di/dmax (Extent of DOPA oxidation) [2]: 0.04

B2: Example 1: Full length recombinant human tyrosinase, synthetic gene codon optimized for baculovirus expression in insect cells (protein, UniProt P14679 1-529, looked up)
chain: MLLAVLYCLLWSFQTSAGHFPRACVSSKNLMEKECCPPWSGDRSPCGQLSGRGSCQNILLSNAPLGPQFPFTGVDDRESWPSVFYNRTCQCSGNFMGFNCGNCKFGFWGPNCTERRLLVRRNIFDLSAPEKDKFFAYLTLAKHTISSDYVIPIGTYGQMKNGSTPMFNDINIYDLFVWMHYYVSMDALLGGSEIWRDIDFAHEAPAFLPWHRLFLLRWEQEIQKLTGDENFTIPYWDWRDAEKCDICTDEYMGGQHPTNPNLLSPASFFSSWQIVCSRLEEYNSHQSLCNGTPEGPLRRNPGNHDKSRTPRLPSSADVEFCLSLTQYESGSMDKAANFSFRNTLEGFASPLTGIADASQSSMHNALHIYMNGTMSQVQGSANDPIFLLHHAFVDSIFEQWLRRHRPLQEVYPEANAPIGHNRESYMVPFIPLYRNGDFFISSKDLGYDYSYLQDSDPDSFQDYIKSYLEQASRIWSWLLGAAMVGAVLTALLAGLVSLLCRHKRKQLPEEKQPLLMEKEDYHSLYQSHL
modifications: full-length recombinant, baculovirus-expressed
notes: Full length recombinant human tyrosinase, synthetic gene codon optimized for baculovirus expression in insect cells
Colour of cell pellet (melanin like pigment within the cells) [3]: black

B3: Example 3: Sonication lysate supernatant of HIGHFIVE cells expressing FL tyrosinase (protein, UniProt P14679 1-529, looked up)
chain: MLLAVLYCLLWSFQTSAGHFPRACVSSKNLMEKECCPPWSGDRSPCGQLSGRGSCQNILLSNAPLGPQFPFTGVDDRESWPSVFYNRTCQCSGNFMGFNCGNCKFGFWGPNCTERRLLVRRNIFDLSAPEKDKFFAYLTLAKHTISSDYVIPIGTYGQMKNGSTPMFNDINIYDLFVWMHYYVSMDALLGGSEIWRDIDFAHEAPAFLPWHRLFLLRWEQEIQKLTGDENFTIPYWDWRDAEKCDICTDEYMGGQHPTNPNLLSPASFFSSWQIVCSRLEEYNSHQSLCNGTPEGPLRRNPGNHDKSRTPRLPSSADVEFCLSLTQYESGSMDKAANFSFRNTLEGFASPLTGIADASQSSMHNALHIYMNGTMSQVQGSANDPIFLLHHAFVDSIFEQWLRRHRPLQEVYPEANAPIGHNRESYMVPFIPLYRNGDFFISSKDLGYDYSYLQDSDPDSFQDYIKSYLEQASRIWSWLLGAAMVGAVLTALLAGLVSLLCRHKRKQLPEEKQPLLMEKEDYHSLYQSHL
modifications: full-length insect cell lysate
Scale ratio di/dmax (DOPA + MBTH Reaction) [4]: 0.85

B4: Example 6: FL lysate supernatant, 15 μg protein equivalent (protein, UniProt P14679 1-529, looked up)
chain: MLLAVLYCLLWSFQTSAGHFPRACVSSKNLMEKECCPPWSGDRSPCGQLSGRGSCQNILLSNAPLGPQFPFTGVDDRESWPSVFYNRTCQCSGNFMGFNCGNCKFGFWGPNCTERRLLVRRNIFDLSAPEKDKFFAYLTLAKHTISSDYVIPIGTYGQMKNGSTPMFNDINIYDLFVWMHYYVSMDALLGGSEIWRDIDFAHEAPAFLPWHRLFLLRWEQEIQKLTGDENFTIPYWDWRDAEKCDICTDEYMGGQHPTNPNLLSPASFFSSWQIVCSRLEEYNSHQSLCNGTPEGPLRRNPGNHDKSRTPRLPSSADVEFCLSLTQYESGSMDKAANFSFRNTLEGFASPLTGIADASQSSMHNALHIYMNGTMSQVQGSANDPIFLLHHAFVDSIFEQWLRRHRPLQEVYPEANAPIGHNRESYMVPFIPLYRNGDFFISSKDLGYDYSYLQDSDPDSFQDYIKSYLEQASRIWSWLLGAAMVGAVLTALLAGLVSLLCRHKRKQLPEEKQPLLMEKEDYHSLYQSHL
modifications: full-length insect cell lysate
notes: FL lysate supernatant, 15 μg protein equivalent
Scale ratio di/dmax (Extent of DOPA oxidation) [2]: 0.90
